# The nanobody polyreactivity screen of Harvey et al. (2022)
# Assay: yeast display, Sf9 membrane polyspecificity reagent, FACS + sequencing; frameworks hold sequencing errors
# In short: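 A nanobody's polyreactivity label depends on the gate it was sorted from. Yeast display cells were stained with 10% biotinylated, detergent-solubilized Sf9 membrane reagent for 1 hour at 4 °C, enriched on streptavidin microbeads and sorted by FACS. The low and high (top ~1%) gates were set on anti-HA fluorescence for expression and streptavidin fluorescence for reagent binding.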
row,Sequence,polyreactivity (PSR sort gate)
1,QVQLVESGGGLVQAGGSLRLSCAASGRTFGRYAMGWYRQAPGKERELVAAINSGSASTYYADSVKGRFTISRDNAKNTVYLQMNSLKPEDTAVYYCAVYGYWSKSDYWGQGTQVTVSS,high polyreactivity
2,QVQLVDSGGGIVQAGGSLRVSCAASGRTFWYYTMGWYIQAPGKERELVAAITSGGSKYYSDSVKGRFTISRDNAKNTVYLQMISLNPEDTAVYYCAAYLLPAYSRISNDYWGQGTQVTVSS,high polyreactivity
3,QVQLVESGGGLVQAGGSLRLSCAASGSIFAWYGMGWYRQAPGKERELVAAITSTGSTYYADSVKGRFTISRDNAKNTVYLQMNSLKPEDTAVYYCNDYSVYLWRPGDYWGQGTQVTVSS,low polyreactivity
4,QVQLVESGGGLVQAGGSLRLSCAASGSIFASYAMGWYRQAPGKERELVAAISARGGSTYYADSVKGRFTISRDNAKNTVYLQMNSLKPEDTAVYYCAARHQQGRRISDYGYWGQGTQVTVSS,high polyreactivity
5,QVQLVESGGGLVQAGGSLRLSCAASGRTLRKYAMGWYRQAPGKERELVAAITWTGGTTYYADSVKWRFTISRDNAKNTVYLQMNSLKPEDTAVYYCATVRSYGYGYDFWGQGTQVTVSS,high polyreactivity
6,QVQLVESGGGLVQAGGSLRLSCAASGSTFRYYAMGWYREAPGKEREFVAAISLRAGSTYYADSVKGRFTISRDNAKNTVYLQMNSLKPEDTAVYYCAARRASYGTRRYDYWGQGTQVTVSS,high polyreactivity
7,QVQLVESGGGLVQAGGSLRLSCAASGRIFAHFAMGGYRQAPGKEWELVAAIDSGGSTDYADSVKGRFTISRDNAKNTVYLQMNSLKPEDTAVYYCNAERAYLWWYNFDYWGQGTQVTVSS,low polyreactivity
8,QVQLEEYGGGLVQAGGSLRLSCAAAGFTCGGYAMGWYRQAPGKDRELVATITRVGSTNYADSVKGRFTISRDNAKNTVYLQMNSLKPEDTAVYYCNTRRVYGHGNAPYDSWGQATQVTVSS,low polyreactivity
9,QVQLVESGVGLVQAGGSLRLSCAASGGTFGYYVMGWYRQATGKESELVAAITSGGSTKYADSVKGRFTISRDNAKNTVYLQMNSLNPEDTAVYYCAADVTRREPYQSYDFWGQGTQVTVSS,low polyreactivity
10,QVQLVESGGGLVQAGGSRRLSCAASGFFFRTYSMGWYRQAPGTERELVAAISSSSGSTYYADSVKGRFTISRDNAKNTVYLQMNSLKPEDTAVYYCAAYSLSQKPRGYNYWGQGTQVTVSS,high polyreactivity
11,QVQLVESGGGLVQAGGSLRLSCAASGGIFEYYAMGWYRQAPGKERELVAAINTGGNTYYADSVKGRFTISRDNAKNTVYLQMNSLKPEDTAVYYCATDPIWYGGYLSGTDYDYWGQGTQVTVSS,low polyreactivity
12,QVQLVESGGGLVQAGGSLRLSSAASGRTFYLYAMGWYRQAPGKAMELVAAISRSGGITYYADSVKGRFTISRDNAKNTVYLQMNSLKPEDTGVYYCAASRAGGYYGKGYSWGQGSQVTVSS,high polyreactivity
13,QVQLVESGGGLVQAGGSLRLSCAASGSTFLANAMGWYRQAPGKERELVATISSGGSTNYADSVKGRFTISRDNAKNTVYLQMNSLKPEDTAVYYCAAEYWYAWQEYGYWGQGTQVTVSS,low polyreactivity
14,QVQLVESGGGLVQAGGSLRLSCAASGFIFRYYAMGWYRQAPGKETELVAAINRGGGTNYADSVKGRFTISRDNAKNTVYLQLNSLKPEDTAVYYCAAVIRTVRERYGYWGQGTQVTVSS,high polyreactivity
15,QVQLVESGGGLVQAGGSLRLICDASGSTFGYYAIGGYRQAPGKERELVAVINKSGGRTYYADSVKGRFTISRDNAKNTVYLQMNSLKPEDTAVYYCATRVTSTRHDYWGQGTQVTVSS,high polyreactivity
16,QVHLVESGGGLVQAGGSLRLSCASSGYIIKYNAMGWYRPAPGKERELVAAISSIGGRTYYADSVKGRFTISRDNAKNTVYLQMNRLKPEDTAVYYCNAVGGRYTGWRYDDWGQGTQVTVSS,high polyreactivity
17,QVQLVESGVGLFQAGGSLRLSCAPSGSTFIGYAMEWYRQAPGKERELVAAISWSGGRTYYADSVKGRFTISRDNAKNTVYLQMISLKPEDTAVYYCNTVPYRISVQFNYWGQGTQVTLSS,high polyreactivity
18,QVQLVESGGGLVQAGGSLRLSCAASGFTFPQNAKGWYRQAPGKERELVAAITNGGTTYYADSVKGRFTISRDNAKNTVYLQMNSLKPEDTAVYYCAAYTYRYGSFKYGYWGQGTQVTVSS,low polyreactivity
19,QVQLVESGGGLVQAGGSLRLSCAASGNTFYINAMGWYRQAPGKERELVAAINYSGDSTYADSVKGRFTISRDNAKNTVYLQMNSLKPEDSAVYYCAADWYFSVYIDYDTEYDYWGQGTQVTVSS,low polyreactivity
20,QVQLVESGGGLVQAGGSLRLSCAASGRIFTQYAMGWYRQAPGKERELVAAISYGGGTTHYADSVKGRFTISRDNAKNTVYLQMNSLKPEDTAVYYCAADGGRQVYTQLYDYWGQGTQVTVSS,low polyreactivity
21,QVQLVESGGGLVQAGGSLRLSCAASGRTFTYYAMGWYRQAPGKERELVAAISNGGRTYYADSVKGRFTISRDNAKNTVYLQMNSLKPEDTAVYYSAAYLSPKGRGFGSWGQGTQVTVSS,high polyreactivity
22,QVQLVESGGGLVQAGGSIRLSCAASGSIFSWYAMGWYSQAPGKERELVAAITSDGGTNYADSVKGRFTISRDNAMNTVYLQMNTLKPEDTAVYYCAADYWYSWRRSHYAHRYGYWGQGTQVTVSS,low polyreactivity

row,Sequence,polyreactivity (PSR sort gate)
1,QVQLVESGGGLVQAGGSIRLSCAASVSTFFVYTMGWYRQATGKGMELVAAISGSGGSTAYADSVKGRFTISRDNAKNTVYLQLNSLKPEDTAVYYCAARRHVYLRGSTFEFNYWGQGTQVTVSS,high polyreactivity
2,QVQLVESGGGLFQAGGSLRVSCAASGRIFFPYAMGWYRQAPGKERELVASIRGGGSTSYADSVKGRFTFSRDNAKNTVYLQMNSLKPEDTAVYYCAATPQAYWVLWSTYYTYYYWGQGTQVTVSS,high polyreactivity
3,QVQLVESGGGLVQAGGSLRLSCAASGFILPVYAMGWYRQAPGTERELVAAISSGGSTNYADSVKGRFTISRDNAKNTVYLQMNSLKPEDTEVYYCNKVDWYFGGYKYDYWGQGTQVTVSS,low polyreactivity
4,QVQLVESGGGLVQAGGSLRLSCAASGSIFTINTMGWYRPAPGKERELVAAITGSGGITYYADSVKGRFTISRDYAKNTVYLQLNTLKPEDTAVYYCAADYWWTIPEEPQGLGAVDYWGLGTQVTVSS,low polyreactivity
5,QVQLVESGGGLVQAGGSLRLSCAASGRIFGRNAMGWYRQAPGKERELVAAISSSGGTYYADSVKGRFTISRDNAKNTVYLQMNSLKPEDTAVYYCAADGPVTGWFYTAIGWVKYDYWGQGTQVTVSS,high polyreactivity
6,QVQLVESGGGLVQAGGSLRLSCAASGRPSLLMLWDGIDRRLGKKGSWLPLLTLVTPTTYADSVKGRFTISRDNAKNTVYLQMNSLKPEDTAVYYCNADFRPLDHYVNWYYYWGQGTQVTVSS,low polyreactivity
7,QVQLEESGGGVVQAGGSLRLSCAASGRTFRWYAMGWYRQAPGKERELVATINSGGTTNYADSVKGRFTISRDNAKNTVYLQMNSLKPEDTAVYYCAATNRGPGHDYWGQGTQVTVSS,low polyreactivity
8,QVQLVESGGGLVQAGGSLRLSCAASGSTFTSYAMGWYRQAPGKERELVAAITRNGGTTYYADSVKGRFTISRDNAKNTVYLQMNSLKPEDTAVYYCNAPHYYYITSDRRFDYWGQGTQVTVSS,low polyreactivity
9,QVQLVESGGGLVQAGASLRLSCAASGSIFYYDMGWDRQAPGKERELVAAITWSGGSTYYADSVKGRFTISRDNAKNTVYLQMNSLKPEDTAVYYCAAIFGYGSTWWRWGKDDYWGQGTQVTVSS,high polyreactivity
10,QVQLVESGGGLVQAGGSLRLSCAASGYIFSLNGMGWYRQEPVKERELVAAITVSGGRTYYADSVKGRFTISRDNAKNTVYLQMNSLKPEDTAVYYCAKRGKYSYWPYYKYDYWGQGTQVTVSS,high polyreactivity
11,QVQLVESGGGLVQAGGSLRLSCAASGSTFDGYVMGWYRQAPGKEREFVAAISWSGGSTYYADSVKGRFTISRDNAKYTVYLQMNRLKREDTAVYYCAARVRRQHGYWGQGTQVTVST,high polyreactivity
12,QVQLVESGGGLVQAGGSLRLSCAASGSTFAEYAMGWYRQAPGKERELVAAIRWSGGSTSYADSVKGRFTMSRDNAKHTVYLQMNSLKPEDTAVYYCAAERFWYDGAVKLYVLSYYWGQGTQVTVSS,low polyreactivity
13,QVQLVESGGGLVQAGGSLRLSCAASGFIFTSYALGWYRQAPGKEREFFAAISRRGGSTYYADSVKGRFTISRDNAKNTVYLQMNSLKPEDTAVYYCAADPKQHSGYDYWGQGTQVTVSS,high polyreactivity
14,QVQLVESGGGLVQAGGSLRLSCAASGFIFQPYAMGWYRPAPGKERELVAGITGSGGNTYYADSVKGRFTISRDNAKNTVYLQMNSLKPEDTAVYYCAARRHIFLLIIWSGRVDYWGQGTEVTVSS,low polyreactivity
15,QVQIVESGGGLVQAGGSHRLSCAASVFTFGGNVMGWYRQAPGKEREFVAAISSSGGSTYYADSVKGRFTISRDNEKNTVFLQINSLKPDDTAVYYCAKYAVVYQYRYYHWGQGTQVTVSS,high polyreactivity
16,QVQLVESGGGLVQAGGSLRLSCSASGLIFSSYAMGWYRPAPGKERELVAAISRGGSTNYADSVKGRFTISRDNAKNTVYLQMNSLKPEDTAVYYCNDYSWVNRYDYWGQGTQVTVSA,high polyreactivity
17,QVQLVESGGGLVQAGGSLRLSCAASGSTFISNTMGWYRQAPGKERELVAGISSIGGITYYADSVKGRFTISRDNAKNTVYLQMNSLKPEDTAVYYCAKLDVISDDLDYWGQGTQVTVSS,low polyreactivity
18,QVQLVESGGGLVQAGGSLRLSCAASGFTLYGNVMGWYRQAPGKERELVASISWSGGNTYYADSVKGRFTISRDNAKNTVYLQMNSLKPEDTAVYYCNANYYDKYGYWGQGTQVTVSS,low polyreactivity
19,QVQLVESGGGLVQAGGSLRLSCAASGFTFYSYAMGWYRQAPGKERELVAVISKRGGSTRYADSVKGRFTISRDNAKNTVYLQMNSLKPEDTAVYYCNADQHSITYNEFDYWGQGTQVTVSS,low polyreactivity
20,QVQLVDSGGGLVQAGGSLRLSCAASGYIFHLYGMGWYRQAPGKERELVARISYRGGSTYYADSVKGRFTISRDNAKNTVYLQMHSLKPEDTAVYYCAKDYYKHYYWGQGTQVTVSS,high polyreactivity
21,QVQLVESGGGLVQAGGRLRLSCAASGSTFWGYTMGWYRQAPGKERELVAAISTIGGSTYYADSVKGRFTISRDNAKNTVYLQMNSLKTEDTAVYYCAAYKGKHYKEGYWGQGTQVTVSS,low polyreactivity
